# How the values were obtained:
# [1] = molecular target: T1, ZCCHC3-FL-7AA (zinc knuckle mutant of ZCCHC3-FL) (human, UniProt Q9NUD5 1-403, C353,366,372,375A | C353,366,372,375A | C353,366,372,375A | C353,366,372,375A | …); assay: co-IP; HEK 293T lysates, FLAG-tagged bait on α-FLAG-M2 antibody bound to Protein G Dynabeads, 3 h at 4°C, 5 washes; endogenous ORF1p detected with polyclonal α-L1Hs-ORF1p; bands quantified with ImageJ (IP/input compared with empty vector); settings: partners not purified
# T1 construct: also called zinc-finger mutant ZCCHC3-FL-7AA; source: HEK 293T, transfected, in lysate; not shown: FLAG, C-terminal, kept
# T1 sequence (looked up): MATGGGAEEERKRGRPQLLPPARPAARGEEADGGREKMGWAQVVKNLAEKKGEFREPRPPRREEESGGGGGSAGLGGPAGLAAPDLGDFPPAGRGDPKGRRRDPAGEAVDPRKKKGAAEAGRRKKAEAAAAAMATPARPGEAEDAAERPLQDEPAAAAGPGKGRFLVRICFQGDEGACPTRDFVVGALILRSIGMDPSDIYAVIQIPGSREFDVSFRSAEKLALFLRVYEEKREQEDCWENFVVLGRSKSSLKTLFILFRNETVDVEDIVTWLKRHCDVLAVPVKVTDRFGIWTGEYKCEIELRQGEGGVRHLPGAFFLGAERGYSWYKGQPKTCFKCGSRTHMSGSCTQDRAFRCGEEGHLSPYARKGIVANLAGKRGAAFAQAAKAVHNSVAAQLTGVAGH
# [2] = molecular target: T2, ZCCHC3-FL (Zinc Finger CCHC-Type Containing 3 with C-terminal FLAG epitope tag) (human, UniProt Q9NUD5 1-403); assay: as above; settings: partners not purified
# T2 construct: ZCCHC3 (Zinc Finger CCHC-Type Containing 3), human; made by PCR amplification of V5-TEV-ZCCHC3 (Ultimate ORF clone IOH40787); legend calls it the 44 kD full-length ZCCHC3-FL; also called FLAG-tagged ZCCHC3; wild-type ZCCHC3-FL; source: HEK 293T, transfected, in lysate; not shown: FLAG, C-terminal, kept
# T2 sequence (looked up): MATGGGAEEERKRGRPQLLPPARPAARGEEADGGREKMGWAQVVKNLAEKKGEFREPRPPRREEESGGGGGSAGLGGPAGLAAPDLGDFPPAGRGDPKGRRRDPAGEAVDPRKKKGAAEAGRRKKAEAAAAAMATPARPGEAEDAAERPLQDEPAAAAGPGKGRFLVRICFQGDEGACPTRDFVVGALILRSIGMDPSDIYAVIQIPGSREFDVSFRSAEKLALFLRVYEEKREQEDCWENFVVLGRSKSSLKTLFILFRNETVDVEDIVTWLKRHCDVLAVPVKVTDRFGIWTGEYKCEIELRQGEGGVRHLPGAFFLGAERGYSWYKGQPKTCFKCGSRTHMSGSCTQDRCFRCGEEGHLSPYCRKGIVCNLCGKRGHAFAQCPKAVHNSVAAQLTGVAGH
binder,measurement,setting,value
"endogenous L1 ORF1p (natural protein, human (endogenous in HEK 293T), UniProt Q9UN81 1-338, looked up, LINE-1 ORF1 protein, endogenous in HEK 293T cells; Endogenous ORF1p comes from many L1 loci; also called endogenous ORF1p; source: endogenous, HEK 293T lysate) MGKKQNRKTGNSKTQSASPPPKERSSSPATEQSWMENDFDELREEGFRRSNYSELREDIQTKGKEVENFEKNLEECITRITNTEKCLKELMELKTKARELREECRSLRSRCDQLEERVSAMEDEMNEMKREGKFREKRIKRNEQSLQEIWDYVKRPNLRLIGVPESDVENGTKLENTLQDIIQENFPNLARQANVQIQEIQRTPQRYSSRRATPRHIIVRFTKVEMKEKMLRAAREKGRVTLKGKPIRLTADLSAETLQARREWGPIFNILKEKNFQPRISYPAKLSFISEGEIKYFIDKQMLRDFVTTRPALKELLKEALNMERNNRYQPLQNHAKM",fold reduction against wild-type ZCCHC3-FL (band intensity),[1],2 fold
same,fold increase over empty vector controls (IP/input band intensity),[2],5 fold

# Reference: paper PMC10351740, “ZCCHC3 is a stress granule zinc knuckle protein that strongly suppresses LINE-1 retrotransposition” (PLOS Genetics, 2023)
